From patent US20250382359A1 (BYOMASS, published 2025)

T1: GDF10 (UniProt P55107 369-478)
T1 sequence (looked up): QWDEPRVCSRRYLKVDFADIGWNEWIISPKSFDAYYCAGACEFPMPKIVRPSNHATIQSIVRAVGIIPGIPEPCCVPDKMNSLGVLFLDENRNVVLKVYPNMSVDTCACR

T2: Human BMP10 (human, UniProt O95393 317-424)
T2 sequence (looked up): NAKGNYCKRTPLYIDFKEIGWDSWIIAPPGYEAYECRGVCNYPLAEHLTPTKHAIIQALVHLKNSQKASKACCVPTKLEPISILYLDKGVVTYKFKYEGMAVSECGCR

T3: Human BMP9 (human, UniProt Q9UK05 320-429)
T3 sequence (looked up): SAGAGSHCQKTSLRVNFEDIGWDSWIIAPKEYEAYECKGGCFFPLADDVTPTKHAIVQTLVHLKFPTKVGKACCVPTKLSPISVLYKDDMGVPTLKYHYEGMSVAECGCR

T4: Human Activin B (human, UniProt P09529 293-407)
T4 sequence (looked up): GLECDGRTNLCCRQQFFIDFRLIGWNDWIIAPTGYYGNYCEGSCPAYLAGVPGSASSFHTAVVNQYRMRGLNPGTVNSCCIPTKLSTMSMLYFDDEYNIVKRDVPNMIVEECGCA

T5: Human Activin A Fc (human, UniProt P08476 311-426)
T5 construct: not shown: Fc part
T5 sequence (looked up): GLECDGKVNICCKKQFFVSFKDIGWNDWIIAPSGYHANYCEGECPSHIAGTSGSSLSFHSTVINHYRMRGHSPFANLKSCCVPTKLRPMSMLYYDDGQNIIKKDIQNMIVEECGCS

T6: GDNF (UniProt P39905 78-211)
T6 sequence (looked up): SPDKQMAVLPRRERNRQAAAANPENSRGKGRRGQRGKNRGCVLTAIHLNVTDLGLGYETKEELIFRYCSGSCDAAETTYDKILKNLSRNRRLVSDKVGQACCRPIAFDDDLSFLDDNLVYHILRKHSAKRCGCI

T7: GDF15 (ligand used in the GFRAL/RET cell assays) (UniProt Q99988 197-308, limits assumed)
T7 sequence (looked up): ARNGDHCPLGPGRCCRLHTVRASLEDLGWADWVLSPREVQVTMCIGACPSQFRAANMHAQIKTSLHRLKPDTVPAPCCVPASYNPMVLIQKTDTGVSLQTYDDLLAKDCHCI

T8: Human GDF15 Fc (human, UniProt Q99988 195-308, limits assumed, biotinylated (EZ-Link Sulfo-NHS-Biotinylation Kit) in the SPR assay)
T8 construct: also called human GDF15-Fc fusion; biotinylated Human GDF15 Fc; not shown: Fc part
T8 sequence: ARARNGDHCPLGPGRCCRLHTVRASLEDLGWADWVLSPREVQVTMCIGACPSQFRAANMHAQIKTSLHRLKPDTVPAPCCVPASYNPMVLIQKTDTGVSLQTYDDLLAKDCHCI


Legend:
GDF10 [1] = target: T1, GDF10; assay: BLI Octet; IgG on sensor, 100 nM antigen (avid)
Human BMP10 [2] = target: T2, Human BMP10; assay: BLI Octet; IgG on sensor, 100 nM antigen (avid)
Human BMP9 [3] = target: T3, Human BMP9; assay: BLI Octet; IgG on sensor, 100 nM antigen (avid)
Human Activin B [4] = target: T4, Human Activin B; assay: BLI Octet; IgG on sensor
GDF11 = target: T9, GDF11 (UniProt O95390 299-407); assay: BLI Octet; IgG on sensor
T9 construct: Also used as ligand in the Activin 2B receptor/SMAD reporter assay

Human Activin A Fc [5] = target: T5, Human Activin A Fc; assay: BLI Octet; IgG on sensor
GDNF [6] = target: T6, GDNF; assay: BLI Octet; IgG on sensor
GDF8 = GDF8 (UniProt O14793 267-375); assay: BLI Octet; IgG on sensor
[7] = target: T7, GDF15 (ligand used in the GFRAL/RET …); assay: cell-based or functional assay
Human GDF15 Fc = target: T8, Human GDF15 Fc; assay: BLI Octet; IgG on sensor, 100 nM antigen (avid)
Description: Briefly, ForteBio affinity measurements were performed by loading IgGs on-line onto AHC sensors. Sensors were equilibrated off-line in assay buffer for 30 min and then monitored on-line for 60 seconds for baseline establishment. Sensors with loaded IgGs were exposed to 100 nM antigen for 3 minutes, and afterwards were transferred to assay buffer for 3 min for off-rate measurement. All kinetics were analyzed using the 1:1 binding model.

GDNF [8] = target: T6, GDNF; assay: BLI Octet; IgG on sensor, 100 nM antigen (avid)
GDF10 [9] = target: T1, GDF10; assay: BLI Octet; IgG on sensor
Human BMP10 [10] = target: T2, Human BMP10; assay: BLI Octet; IgG on sensor
Human BMP9 [11] = target: T3, Human BMP9; assay: BLI Octet; IgG on sensor
Human Activin A Fc [12] = target: T5, Human Activin A Fc; assay: BLI Octet; IgG on sensor, 100 nM antigen (avid)
Human Activin B [13] = target: T4, Human Activin B; assay: BLI Octet; IgG on sensor, 100 nM antigen (avid)

T9 sequence (O95390 299-407 limits assumed): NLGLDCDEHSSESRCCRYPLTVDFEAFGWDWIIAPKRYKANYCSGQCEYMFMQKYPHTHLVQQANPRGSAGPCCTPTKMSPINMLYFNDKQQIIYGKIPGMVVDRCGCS

Binder	Kd (GDF10 [1]) [nM]	binding result (Human BMP10 [2])	binding result (Human BMP9 [3])	binding result (Human Activin B [4])	binding result (GDF11)	binding result (Human Activin A Fc [5])	binding result (GDNF [6])	binding result (GDF8)	GDF15-GFRAL RET pERK IC50 (pM) [7] [pM]	GDF15-GFRAL-RET Luciferase IC50 (pM) [7] [pM]	Kd (Human GDF15 Fc) [nM]	Kd (GDNF [8]) [nM]	binding result (GDF10 [9])	binding result (Human BMP10 [10])	binding result (Human BMP9 [11])	Kd (Human Activin A Fc [12]) [nM]	Kd (Human Activin B [13]) [nM]
GDF15 antibody agent Clone G, IgG (antibody, V domains shown) VH: QVQLVQSGAEVKKPGSSVKVSCKASGGTFQGYAISWARQAPGQGLEWMGGIIPPYATANYAQKFQGRVTITADESTSTAYMELSSLRSEDTAVYYCARGVGELHLDVWGQGTMVTVSS VL: not shown	36.8	binds	binds	no binding (tested: 100 nM)	no binding (tested: 100 nM)	no binding (tested: 100 nM)	no binding (tested: 100 nM)	no binding (tested: 100 nM)	66.7	97.1	0.256	–	–	–	–	–	–
GDF15 antibody agent Clone M, IgG (antibody, V domains shown) VH: QVQLVQSGAEVKKPGASVKVSCKASGYTFDSYGINWVRQAPGQGLEWMGWISAYSGDTAYAQELQGRVTMTTDTSTSTAYMELRSLRSDDTAVYYCVRDTQYGGSPYWGQGTLVTVSS VL: not shown	–	–	–	no binding (tested: 100 nM)	no binding (tested: 100 nM)	no binding (tested: 100 nM)	–	no binding (tested: 100 nM)	88.7	–	0.317	31.4	no binding (tested: 100 nM)	no binding (tested: 100 nM)	no binding (tested: 100 nM)	–	–
GDF15 antibody agent Clone N, IgG (antibody, V domains shown) VH: QVQLVQSGAEVKKPGASVKVSCKASGYTFTDYGIFWVRQAPGQGLEWMGWITAYSGDTHYAQKLQGRVTMTTDTSTSTAYMELRSLRSDDTAVYYCVRDTQYGGSPYWGQGTLVTVSS VL: not shown	–	–	–	no binding (tested: 100 nM)	no binding (tested: 100 nM)	no binding (tested: 100 nM)	–	no binding (tested: 100 nM)	99.7	–	0.336	2.56	no binding (tested: 100 nM)	no binding (tested: 100 nM)	no binding (tested: 100 nM)	–	–
GDF15 antibody agent Clone K, IgG (antibody, V domains shown) VH: QVQLVQSGAEVKKPGASVKVSCKASGYTFTNEGISWVRQAPGQGLEWMGWISAYTADTFYAQKLQGRVTMTTDTSTSTAYMELRSLRSDDTAVYYCARTRHDTSGLRFDYWGQGTLVTVSS VL: DIQMTQSPSSVSASVGDRVTITCRASQGIDSWLAWYQQKPGKAPKLLIYAASSLQSGVPSRFSGSGSGTDFTLTISSLQPEDFATYYCQQVHSFPITFGGGTKVEIKR	–	–	–	no binding (tested: 100 nM)	no binding (tested: 100 nM)	no binding (tested: 100 nM)	–	no binding (tested: 100 nM)	187	813	0.271	333	no binding (tested: 100 nM)	no binding (tested: 100 nM)	no binding (tested: 100 nM)	–	–
GDF15 antibody agent Clone L, IgG (antibody, V domains shown) VH: QVQLVQSGAEVKKPGASVKVSCKASGYTFASYDIIWVRQAPGQGLEWMGWISALSGDTVYAQKLQGRVTMTTDTSTSTAYMELRSLRSDDTAVYYCARTRHDTSGIRFDYWGQGTLVTVSS VL: DIQMTQSPSSVSASVGDRVTITCRASQGIDSWLAWYQQKPGKAPKLLIYAASSLQSGVPSRFSGSGSGTDFTLTISSLQPEDFATYYCQQVHSFPITFGGGTKVEIKR	–	–	–	no binding (tested: 100 nM)	no binding (tested: 100 nM)	no binding (tested: 100 nM)	–	no binding (tested: 100 nM)	13.5	274	0.325	229	no binding (tested: 100 nM)	no binding (tested: 100 nM)	no binding (tested: 100 nM)	–	–
GDF15 antibody agent Clone A, IgG (antibody, V domains shown) VH: QVQLQESGPGLVKPSQTLSLTCTVSGGSITSGGSYWSWIRQHPGKGLEWIGAIVYSGSTYYNPSLKSRVTISVDTSKNQFSLKLSSVTAADTAVYYCARGVEYQHFDYWGQGTLVTVSS VL: not shown	–	binds	binds	no binding (tested: 100 nM)	no binding (tested: 100 nM)	–	no binding (tested: 100 nM)	no binding (tested: 100 nM)	102	75	0.263	–	–	–	–	7.34	–
GDF15 antibody agent Clone C, IgG (antibody, V domains shown) VH: QVQLQESGPGLVKPSQTLSLTCTVSGGSISSGGYYWSWIRQHPGKGLEWIGAIVYSGHTYYNPSLKSRVTISVDTSKNQFSLKLSSVTAADTAVYYCARGVEYQHFSLWGQGTLVTVSS VL: not shown	–	–	binds	–	no binding (tested: 100 nM)	–	no binding (tested: 100 nM)	no binding (tested: 100 nM)	145	39.6	0.254	–	–	no binding (tested: 100 nM)	–	6.48	132
GDF15 antibody agent Clone D, IgG (antibody, V domains shown) VH: QVQLQESGPGLVKPSQTLSLTCTVSGGSINSGGYYWTWIRQHPGKGLEWIGAIYYSGSTVYNPSLKSRVTISVDTSKNQFSLKLSSVTAADTAVYYCARGVEYQHFNEWGQGTLVTVSS VL: not shown	–	–	binds	no binding (tested: 100 nM)	no binding (tested: 100 nM)	–	no binding (tested: 100 nM)	no binding (tested: 100 nM)	50.4	58.7	0.263	–	–	no binding (tested: 100 nM)	–	7.87	–
